Here are results for 1 molecule from patent US20100216969A1 (BIONANOPHOTNICS A S, published 2010).

Bridge positions count the residues as written; N and C are the ends. Ends that are not written are not given here.

This assay has as its target T1, Lysozyme (Sigma L-7651) (UniProt P00698 19-147).
T1 construct: Used as 2 uM solution in 25 mM Tris pH 7.0; also called model protein
Briefly: TIRF flow chamber, tryptophan fluorescence (excitation 295 nm, emission 350 nm); lysozyme loaded over the peptide-coated quartz slide with the light off, then Tween20/PBS and buffer rinses. The text has this:
A TIRF system (BioElectroSpec, Inc., Harrisburg, Pa.) coupled with a fluorescence spectrophotometer (PTI QM-2000 from Photon Technology Int., Lawrenceville, N.J.) with a 75W Xenon arc source was used. The PTI instrument excitation and emission slits were set at 6 nm. The flow chamber was comprised by a “sandwich” consisting of a TIRF quartz prism, a TIRF quartz slide (with the sample surface), a 10 μm polyureathane gasket (comprising the chamber thickness), and a back block with holes to channel the solution through the flow chamber. In this setup, the excitation light travels through the prism and slide, hits the interface between slide and solution, leading to total internal reflection at the interface. The reflected beam generates an evanescent electromagnetic field in the centre of the TIRF slide—this area of the TIRF slide serves thus as the sensor surface. Only fluorophores that are present at the surface and in close proximity of the surface (within the evanescent field) are excited and fluoresce.

T1 sequence (P00698 19-147 limits assumed): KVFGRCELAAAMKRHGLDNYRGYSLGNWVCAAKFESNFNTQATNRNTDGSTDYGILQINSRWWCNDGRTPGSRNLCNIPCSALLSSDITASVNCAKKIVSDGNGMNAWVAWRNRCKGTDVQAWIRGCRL

B1: synthetic disulphide-peptide KAMHAWGCGGGC-NH2 (SEQ ID NO 9) (peptide)
peptide: KAMHAWGCGGGC-NH2
modifications: disulfide 8-12; also: attached to aldehyde quartz surface via lysine amine and/or N-terminal amine (Schiff bond)
notes: Loaded at 10 uM onto an aldehyde-coated TIRF quartz slide; It stood in the assay as the surface coating; also called peptide linker
Turning to B1, the binding result was “no binding (tested: 2 µM)”.
